Ends that are not written are not given here.
T1: GST-β5cyto (GST fusion protein of the β5 integrin cytoplasmic domain) (UniProt P18084 743-799)
T1 construct: domain: cytoplasmic domain; Recombinant GST fusion coated on microtiter wells; also called β5-GST; β5 cytoplasmic domain fusion protein; not shown: glutathione S-transferase (GST) fusion partner
T1 sequence (looked up): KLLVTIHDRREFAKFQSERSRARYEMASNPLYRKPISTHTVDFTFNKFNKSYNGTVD

B1: CPRECESIC (SEQ ID NO:123) soluble cyclic peptide (peptide)
peptide: CPRECESIC
modifications: disulfide (positions not given here); not fully specified; also: disulfide positions not determined, mixture of six MS species, possibly dimers
B2: phage displaying … (SEQ ID NO:101) (peptide)
peptide: AGWLYMSWK
B3: phage displaying DWFSYYEL (SEQ ID NO:114) (peptide)
peptide: DWFSYYEL
B4: phage displaying … (SEQ ID NO:108) (peptide)
peptide: CKLWQEDGY
B5: Fyn-phosphorylated phage displaying … (SEQ ID NO:117) (peptide)
peptide: MLLGYRFEK
modifications: not fully specified (residue 5); also: displayed on phage
B6: Fyn-phosphorylated phage displaying … (SEQ ID NO:115) (peptide)
peptide: GGGSYRHVE
modifications: not fully specified (residue 5); also: displayed on phage
B7: Fyn-phosphorylated phage displaying … (SEQ ID NO:120) (peptide)
peptide: TLRKYFHSS
modifications: not fully specified (residue 5); also: displayed on phage
B8: Fyn-phosphorylated phage displaying … (SEQ ID NO:118) (peptide)
peptide: TMLRYTVRL
modifications: not fully specified (residue 5); also: displayed on phage
B9: Fyn-phosphorylated phage displaying … (SEQ ID NO:119) (peptide)
peptide: TMLRYFMFP
modifications: not fully specified (residue 5); also: displayed on phage
B10: phage displaying KVSWYLDNG (SEQ ID NO:99) (peptide)
peptide: KVSWYLDNG
notes: whole phage tested
B11: phage displaying CLRQSYSYNC (SEQ ID NO:104) (peptide)
peptide: CLRQSYSYNC
modifications: cysteine pairing not given here; also: displayed on phage
notes: whole phage tested
B12: phage displaying CFQNRC (SEQ ID NO:102) (peptide)
peptide: CFQNRC
modifications: cysteine pairing not given here; also: displayed on phage
notes: whole phage tested
B13: phage displaying SDNRYIGSW (SEQ ID NO:97) (peptide)
peptide: SDNRYIGSW
notes: whole phage tested
B14: phage displaying YDWWYPWSW (SEQ ID NO:95) (peptide)
peptide: YDWWYPWSW
notes: whole phage tested
B15: phage displaying GLDTYRGSP (SEQ ID NO:96) (peptide)
peptide: GLDTYRGSP
notes: whole phage tested
B16: phage displaying SDWYYPWSW (SEQ ID NO:100) (peptide)
peptide: SDWYYPWSW
notes: whole phage tested; Selected on β3
B17: phage displaying YEWWYWSWA (SEQ ID NO:98) (peptide)
peptide: YEWWYWSWA
notes: whole phage tested
B18: phage displaying CARLEVLLPC (SEQ ID NO:94) (peptide)
peptide: CARLEVLLPC
modifications: cysteine pairing not given here; also: displayed on phage
notes: whole phage tested
B19: phage displaying CNLSSEQC (SEQ ID NO:103) (peptide)
peptide: CNLSSEQC
modifications: cysteine pairing not given here; also: displayed on phage
notes: whole phage tested
B20: phage displaying CEQRQTQEGC (SEQ ID NO:93) (peptide)
peptide: CEQRQTQEGC
modifications: cysteine pairing not given here; also: displayed on phage
notes: whole phage tested
B21: phage displaying VVISYSMPD (SEQ ID NO:112) (peptide)
peptide: VVISYSMPD
notes: whole phage tested
B22: phage displaying CWDQNYLDDC (SEQ ID NO:109) (peptide)
peptide: CWDQNYLDDC
notes: whole phage tested
B23: phage displaying CEPYWDGWFC (SEQ ID NO:106) (peptide)
peptide: CEPYWDGWFC
modifications: cysteine pairing not given here; also: displayed on phage
notes: whole phage tested
B24: phage displaying KQFSYRYLL (SEQ ID NO:111) (peptide)
peptide: KQFSYRYLL
notes: whole phage tested
B25: phage displaying SDWYYPWSW (SEQ ID NO:113) (peptide)
peptide: SDWYYPWSW
notes: whole phage tested; Selected on β5
B26: phage displaying CYIWPDSGLC (SEQ ID NO:105) (peptide)
peptide: CYIWPDSGLC
modifications: cysteine pairing not given here; also: displayed on phage
notes: whole phage tested
B27: phage displaying CKEDGWLMTC (SEQ ID NO:107) (peptide)
peptide: CKEDGWLMTC
notes: whole phage tested
B28: phage displaying DEEGYYMMR (SEQ ID NO:110) (peptide)
peptide: DEEGYYMMR
notes: whole phage tested
B29: phage displaying CAVACWADCQLGC (SEQ ID NO:129) (peptide)
peptide: CAVACWADCQLGC
notes: one of the other phage selected in round 2
B30: phage displaying CGTGCAVECEVVC (SEQ ID NO:128) (peptide)
peptide: CGTGCAVECEVVC
notes: whole phage tested
B31: phage displaying CSGLCTVQCLEGC (SEQ ID NO:130) (peptide)
peptide: CSGLCTVQCLEGC
notes: as for B29
B32: phage displaying CSMMCLEGCDDWC (SEQ ID NO:131) (peptide)
peptide: CSMMCLEGCDDWC
notes: as for B29
B33: phage displaying CLGQCASICVNDC (SEQ ID NO:126) (peptide)
peptide: CLGQCASICVNDC
notes: whole phage tested
B34: phage displaying CYNLCIRECESICGADGACWTWCADGCSRSC (SEQ ID NO:125) (peptide)
peptide: CYNLCIRECESICGADGACWTWCADGCSRSC
notes: whole phage tested; also called tandem phage
B35: phage displaying CPKVCPRECESNC (SEQ ID NO:127) (peptide)
peptide: CPKVCPRECESNC
notes: whole phage tested

target: T2, Aminopeptidase A (APA, EC 3.4.11.7) on SK-RC-49/APA cells (UniProt Q07075 1-957, limits assumed); experiment: cell-based or functional assay
T2 sequence (Q07075 whole entry): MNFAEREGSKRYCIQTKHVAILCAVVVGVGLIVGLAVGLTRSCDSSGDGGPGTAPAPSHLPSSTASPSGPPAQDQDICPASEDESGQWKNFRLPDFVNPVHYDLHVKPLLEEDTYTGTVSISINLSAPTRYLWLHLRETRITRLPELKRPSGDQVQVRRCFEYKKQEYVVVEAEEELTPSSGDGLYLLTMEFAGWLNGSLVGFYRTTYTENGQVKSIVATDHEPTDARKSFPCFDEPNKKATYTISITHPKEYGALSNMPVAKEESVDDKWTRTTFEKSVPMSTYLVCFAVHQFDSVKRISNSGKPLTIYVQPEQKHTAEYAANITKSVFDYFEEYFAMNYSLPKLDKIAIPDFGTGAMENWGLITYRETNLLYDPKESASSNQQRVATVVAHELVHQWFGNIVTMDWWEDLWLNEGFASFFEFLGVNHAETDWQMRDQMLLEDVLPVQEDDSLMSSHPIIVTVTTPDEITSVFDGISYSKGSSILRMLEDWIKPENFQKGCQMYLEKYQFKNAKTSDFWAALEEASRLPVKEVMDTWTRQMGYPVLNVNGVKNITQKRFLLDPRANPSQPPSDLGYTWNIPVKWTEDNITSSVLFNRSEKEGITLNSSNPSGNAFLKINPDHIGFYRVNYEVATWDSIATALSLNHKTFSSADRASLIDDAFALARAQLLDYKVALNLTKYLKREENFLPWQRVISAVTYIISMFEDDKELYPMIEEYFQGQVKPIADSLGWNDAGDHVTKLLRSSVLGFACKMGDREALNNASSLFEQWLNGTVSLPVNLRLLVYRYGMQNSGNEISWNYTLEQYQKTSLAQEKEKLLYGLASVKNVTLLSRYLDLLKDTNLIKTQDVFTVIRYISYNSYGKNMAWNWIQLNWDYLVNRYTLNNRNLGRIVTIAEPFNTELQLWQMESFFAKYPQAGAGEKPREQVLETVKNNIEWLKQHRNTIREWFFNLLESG

| Binder | IC50 for APA enzyme inhibition (α-glutamyl-p-nitroanilide, colorimetric, SK-RC49/APA cells) [µM] |
| --- | --- |
| B1 | 800 |

target: GST-β3cyto (GST fusion protein of the β3 integrin cytoplasmic domain) (UniProt P05106); experiment: phage binding, colonies from β3-GST wells / BSA wells
Sequence (P05106 742-788): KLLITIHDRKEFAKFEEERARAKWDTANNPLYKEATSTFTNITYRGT

| Binder | β3/BSA Ratio |
| --- | --- |
| B2 | 2.4 |

target: GST-β3cyto (GST fusion protein of the β3 integrin cytoplasmic domain) (UniProt P05106); experiment: phage binding, colonies from β3-GST wells / GST wells

| Binder | β3/GST Ratio |
| --- | --- |
| B2 | 1.8 |

target: GST-β5cyto (GST fusion protein of the β5 integrin cytoplasmic domain) (UniProt P18084); experiment: phage binding, colonies from β5-GST wells / BSA wells

| Binder | β5/BSA Ratio |
| --- | --- |
| B3 | 153 |
| B4 | 665 |

target: GST-β5cyto (GST fusion protein of the β5 integrin cytoplasmic domain) (UniProt P18084); experiment: phage binding, colonies from β5-GST wells / GST wells

| Binder | β5/GST Ratio |
| --- | --- |
| B3 | 1.7 |
| B4 | 1.8 |

target: GST-β3cyto (GST fusion protein of the β3 integrin cytoplasmic domain) (UniProt P05106); experiment: phosphorylated phage binding, β3 colonies / BSA colonies

| Binder | β3 or β5/BSA |
| --- | --- |
| B5 | 2.7 |
| B6 | 5.3 |

target: GST-β3cyto (GST fusion protein of the β3 integrin cytoplasmic domain) (UniProt P05106); experiment: phosphorylated phage binding, β3 colonies / GST colonies

| Binder | β3 or β5/GST |
| --- | --- |
| B5 | 3.5 |
| B6 | 1.5 |

target: GST-β5cyto (GST fusion protein of the β5 integrin cytoplasmic domain) (UniProt P18084); experiment: phosphorylated phage binding, β5 colonies / BSA colonies

| Binder | β3 or β5/BSA |
| --- | --- |
| B7 | 15.2 |
| B8 | 2.2 |
| B9 | 3.8 |

target: GST-β5cyto (GST fusion protein of the β5 integrin cytoplasmic domain) (UniProt P18084); experiment: phosphorylated phage binding, β5 colonies / GST colonies

| Binder | β3 or β5/GST |
| --- | --- |
| B7 | 3.8 |
| B8 | 3.4 |
| B9 | 2.3 |

target: T3, GST-β3cyto (GST fusion protein of the β3 integrin cytoplasmic domain) (UniProt P05106 742-788); experiment: phage binding, colonies from β3-GST wells / BSA wells
T3 construct: domain: cytoplasmic domain; Recombinant GST fusion coated on microtiter wells; also called β3-GST; β3 cytoplasmic domain fusion protein; not shown: glutathione S-transferase (GST) fusion partner
Text: (§1) β3 and β5 cytoplasmic domain-binding peptides were isolated by screening multiple phage libraries with recombinant GST fusion proteins that contained either GST-β3cyto or GST-β5cyto coated onto microtiter wells. Immobilized GST was used as a negative control for enrichment during the panning of each cytoplasmic domain. Phage were sequenced from randomly selected clones after three rounds of panning as disclosed elsewhere (Koivunen et al., 1995; Pasqualini et al., 1995). […] Randomly selected clones from panning rounds II and III were sequenced. Amino acid sequences of the phagemid encoded peptides were deduced from nucleotide sequences. The ratios were calculated by dividing the number of colonies recovered from β3-GST-coated wells and those recovered from GST or BSA.

T3 sequence (P05106 742-788): as above

| Binder | β3/BSA Ratio [ratio] |
| --- | --- |
| B10 | 20 |
| B11 | 3.2 |
| B12 | 16 |
| B13 | 32 |
| B14 | 163 |
| B15 | 48 |
| B16 | 157 |
| B17 | 28.1 |
| B18 | 18.7 |
| B19 | 62 |
| B20 | 14 |

target: T3, GST-β3cyto (GST fusion protein of the …); experiment: phage binding, colonies from β3-GST wells / GST wells
Text: as §1

| Binder | β3/GST Ratio [ratio] |
| --- | --- |
| B10 | 2.1 |
| B11 | 2.4 |
| B12 | 3.1 |
| B13 | 3.3 |
| B14 | 5.6 |
| B15 | 4.1 |
| B16 | 2.1 |
| B17 | 2.2 |
| B18 | 2.8 |
| B19 | 2.7 |
| B20 | 4.3 |

target: T1, GST-β5cyto (GST fusion protein of the …); experiment: phage binding, colonies from β5-GST wells / BSA wells
Text: as §1

| Binder | β5/BSA Ratio [ratio] |
| --- | --- |
| B21 | 28 |
| B22 | 100 |
| B23 | 400 |
| B24 | 8 |
| B25 | 304 |
| B26 | 193 |
| B27 | 836 |
| B28 | 29 |

target: T1, GST-β5cyto (GST fusion protein of the …); experiment: phage binding, colonies from β5-GST wells / GST wells
Text: as §1

| Binder | β5/GST Ratio [ratio] |
| --- | --- |
| B21 | 3.8 |
| B22 | 1.5 |
| B23 | 3.1 |
| B24 | 4.5 |
| B25 | 2.4 |
| B26 | 5.2 |
| B27 | 2.3 |
| B28 | 11.5 |

target: T2, Aminopeptidase A (APA, EC 3.4.11.7) on …; experiment: phage binding to SK-RC-49/APA cells against SK-RC-49 parental cells

| Binder | binding result |
| --- | --- |
| B29 | no binding |
| B30 | no binding |
| B31 | no binding |
| B32 | no binding |

target: T2, Aminopeptidase A (APA, EC 3.4.11.7) on …; experiment: phage binding to SK-RC-49/APA cells against parental cells (not shown)

| Binder | fold enrichment relative to SK-RC-49 parental cells [fold] |
| --- | --- |
| B33 | 6 |
| B34 | 6 |
| B35 | 6 |

target: GST-β3cyto (GST fusion protein of the β3 integrin cytoplasmic domain) (UniProt P05106); experiment: phage binding to β3, colonies with Fyn-phosphorylated phage / unphosphorylated phage

| Binder | Phos/Unphos |
| --- | --- |
| B5 | 2.5 |
| B6 | 13.2 |

target: GST-β5cyto (GST fusion protein of the β5 integrin cytoplasmic domain) (UniProt P18084); experiment: phage binding to β5, colonies with Fyn-phosphorylated phage / unphosphorylated phage

| Binder | Phos/Unphos |
| --- | --- |
| B7 | 3.8 |
| B8 | 14.3 |
| B9 | 4.2 |

From patent US20040170955A1 (University of Texas, published 2004)
